# Laboratory results published in article PMC8249616, “Structural basis of the activation of c-MET receptor” (Nature Communications, 2021).
# B1: NK1 (human HGF amino acids 31-209) (ligand, UniProt P14210 31-209, looked up)
# chain: GQRKRRNTIHEFKKSAKTTLIKIDPALKIKTKKVNTADQCANRCTRNKGLPFTCKAFVFDKARKQCLWFPFNSMSSGVKKEFGHEFDLYENKDYIRNCIIGKGRSYKGTVSITKSGIKCQPWSSMIPHEHSFLPSSYRGKDLQENYCRNPRGEEGGPWCFTSNPEVRYEVCDIPQCSEV
# notes: human HGF amino acids 31-209 (N and K1 domains), after an HR3C site; source: E. coli Rosetta-gami 2 (DE3), purified (Ni Sepharose, SEC); not shown: DsBC, N-terminal, cleaved; His6, N-terminal, cleaved
# B2: c-MET927-LZ (c-MET 1-927, GGGGS linker, GCN4 leucine zipper), tags cleaved (receptor)
# chain: not shown
# notes: signal peptide in the construct; linker; written here as one chain; also called c-MET-LZ; c-MET I; source: HEK293F infected with baculovirus (pEZT-BM), secreted, purified (Ni resin, SEC); not shown: Tsi3, C-terminal, cleaved; His6, C-terminal, cleaved
# Legend:
# [1] = biological target: the molecule itself; assay: cryo-EM structure; c-MET927-LZ mixed with NK1 and heparin (Tinzaparin sodium) 1:1:4, complex isolated by SEC in 20 mM Hepes pH 7.5, 100 mM NaCl; 2 mM fluorinated Fos-Choline-8 added before freezing
# [2] = biological target: T1, full-length human hepatocyte growth factor (HGF), wild type (human, UniProt P14210 32-728); assay: SEC; c-MET927 or c-MET927-LZ alone and mixed with HGF in vitro (Supplementary Fig. 1); whether heparin was added is not told; details: both partners purified
# T1 construct: signal peptide in the construct; full-length human HGF followed by an HR3C site and a His6 tag; written here as one chain; also called HGF WT; HGF I; source: HEK293F infected with baculovirus (pEZT-BM), 5% FBS in the medium, secreted, purified (cation exchange, SEC)
# T1 sequence (P14210 32-728): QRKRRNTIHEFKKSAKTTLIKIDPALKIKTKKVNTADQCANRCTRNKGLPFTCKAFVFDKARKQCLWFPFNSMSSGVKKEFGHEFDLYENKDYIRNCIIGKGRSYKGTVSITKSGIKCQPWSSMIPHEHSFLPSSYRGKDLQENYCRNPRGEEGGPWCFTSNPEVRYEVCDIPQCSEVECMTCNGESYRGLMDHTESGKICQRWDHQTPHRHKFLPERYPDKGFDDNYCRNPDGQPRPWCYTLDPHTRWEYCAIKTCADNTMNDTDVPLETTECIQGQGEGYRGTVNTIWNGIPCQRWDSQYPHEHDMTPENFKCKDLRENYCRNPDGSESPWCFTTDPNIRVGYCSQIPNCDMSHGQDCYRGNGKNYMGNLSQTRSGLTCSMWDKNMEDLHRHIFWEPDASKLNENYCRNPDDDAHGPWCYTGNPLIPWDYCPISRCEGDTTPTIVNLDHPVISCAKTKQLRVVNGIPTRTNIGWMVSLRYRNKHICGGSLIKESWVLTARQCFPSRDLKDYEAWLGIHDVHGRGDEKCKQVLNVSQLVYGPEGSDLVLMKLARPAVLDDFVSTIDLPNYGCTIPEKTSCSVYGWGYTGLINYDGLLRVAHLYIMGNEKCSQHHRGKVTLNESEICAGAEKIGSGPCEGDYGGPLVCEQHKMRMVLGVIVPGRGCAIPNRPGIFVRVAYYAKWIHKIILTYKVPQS
# [3] = biological target: the molecule itself; assay: as above
# [4] = biological target: B1; assay: cryo-EM structure; c-MET927-LZ mixed with NK1 and heparin (Tinzaparin sodium) 1:1:4, complex isolated by SEC in 20 mM Hepes pH 7.5, 100 mM NaCl; 2 mM fluorinated Fos-Choline-8 added before freezing; details: both partners purified
binder,measurement,setting,value
B1,stoichiometry N,[1],2
B2,binding result,[2],binds
same,stoichiometry N,[3],2
same,binding result,[4],binds
